According to patent publication US20230399394A1 (SUNSHINE GUOJIAN PHARMACEUTICAL SHANGHAI, published 2023):

T1: Human IL-33-his (human, UniProt O95760 112-270, biotinylated with EZ-Link NHS-Biotin where used as IL-33-his-biotin)
T1 construct: Used plain (SPR, cell assays) and biotinylated (ELISA); also called IL-33-his-biotin
T1 sequence: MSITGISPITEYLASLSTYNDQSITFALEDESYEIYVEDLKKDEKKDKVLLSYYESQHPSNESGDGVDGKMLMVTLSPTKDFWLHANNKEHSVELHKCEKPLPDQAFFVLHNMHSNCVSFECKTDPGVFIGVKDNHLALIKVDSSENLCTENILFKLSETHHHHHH

T2: IL-33 mutant protein S63A (human, UniProt O95760 112-270)
T2 construct: Prokaryotic expression
T2 chain: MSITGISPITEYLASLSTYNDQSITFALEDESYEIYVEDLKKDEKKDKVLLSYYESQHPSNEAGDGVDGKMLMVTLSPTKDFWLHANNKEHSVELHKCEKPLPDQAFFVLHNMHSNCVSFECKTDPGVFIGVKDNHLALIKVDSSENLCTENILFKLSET

T3: IL-33 mutant protein D65A (human, UniProt O95760 112-270)
T3 construct: Prokaryotic expression
T3 chain: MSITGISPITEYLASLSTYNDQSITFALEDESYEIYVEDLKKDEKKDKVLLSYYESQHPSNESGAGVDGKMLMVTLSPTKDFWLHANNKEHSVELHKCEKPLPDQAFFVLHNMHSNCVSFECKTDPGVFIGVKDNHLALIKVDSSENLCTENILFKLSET

T4: IL-33 mutant protein Y53A (human, UniProt O95760 112-270)
T4 construct: Prokaryotic expression
T4 chain: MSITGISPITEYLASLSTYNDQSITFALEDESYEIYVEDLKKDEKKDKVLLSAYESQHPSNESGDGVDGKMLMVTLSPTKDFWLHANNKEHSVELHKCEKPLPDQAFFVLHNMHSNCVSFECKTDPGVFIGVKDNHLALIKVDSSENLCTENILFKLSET

T5: IL-33 mutant protein E62A (human, UniProt O95760 112-270)
T5 construct: Prokaryotic expression
T5 chain: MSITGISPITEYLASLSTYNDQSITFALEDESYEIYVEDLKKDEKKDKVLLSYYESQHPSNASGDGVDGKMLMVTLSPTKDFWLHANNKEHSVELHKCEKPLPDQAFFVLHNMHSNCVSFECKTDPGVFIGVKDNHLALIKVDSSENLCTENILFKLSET

T6: IL-33 mutant protein S60A (human, UniProt O95760 112-270)
T6 construct: Prokaryotic expression; also called 560A
T6 chain: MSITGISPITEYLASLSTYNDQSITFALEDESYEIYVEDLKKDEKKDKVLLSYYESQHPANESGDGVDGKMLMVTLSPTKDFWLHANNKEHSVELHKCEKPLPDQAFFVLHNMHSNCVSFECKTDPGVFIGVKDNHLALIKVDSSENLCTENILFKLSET

T7: IL-33 protein without any mutation (WT) (human, UniProt O95760 112-270)
T7 construct: Control of the alanine scan (four runs WT-1 to WT-4); also called WT-1; WT-2
T7 sequence: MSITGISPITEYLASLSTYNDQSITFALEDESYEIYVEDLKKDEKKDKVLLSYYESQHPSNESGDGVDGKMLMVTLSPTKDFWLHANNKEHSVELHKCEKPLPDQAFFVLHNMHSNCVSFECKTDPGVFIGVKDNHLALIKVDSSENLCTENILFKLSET


Legend:
[1] = target: T1, Human IL-33-his; assay: competition ELISA, antibody mixed with IL-33-his-biotin, ST2 on plate; competitor ST2
Method: ST2 is the only receptor for IL-33 that has been discovered so far. As a cytokine, IL-33 exerts its physiological function depending on ST2 signaling pathway, and the blocking activity of antibody can reflect the neutralizing activity thereof. The specific method was as follows: the plate was coated with 2 μg/ml ST2 PBS solution at 4° C. overnight; the plate was washed with PBST for 3 times, then the plated was blocked with 5% skim milk powder at 37° C. for 2 hours; the plate was washed with PBST for 3 times for later use. 20 ng/ml IL-33-his-biotin antigen diluted by 1% BSA was mixed with antibodies to be tested diluted by gradient with 1% BSA at 1:1 equal volume and incubated at 37° C. for […]. The mixture was added to a pre-coated ST2 plate and incubated at 37° C. for 1 h. The plate was washed with PBST for 3 times. HRP-labeled streptavidin secondary antibody was added at 1:8000 and incubated at 37° C. for 0.5 hours. After washing the plate with PBST for 3 times, the plate was patted on the absorbent paper to remove residual droplets as far as possible. 100 μl TMB was added to each well, and the plate was placed at room temperature (20±5° C.) for 5 minutes away from light; 50 μl 2M H₂SO₄ terminating solution was added to each well to terminate the substrate reaction. OD values were read at 450 nm on the microplate reader.

[2] = target: T2, IL-33 mutant protein S63A; assay: ELISA as Example 9; row S63A
Method: (§1) SA protein was diluted to 2 μg/mL to coat ELISA plate at 100 μL/well overnight at 4° C. The plate was washed with PBST (PBS containing 0.05% Tween20) for 3 times, and blocked with 2% BSA prepared in PBS at 200 μL/well, at room temperature for 2 h. After the plate was washed twice with PBST, IL-33-his-biotin protein was diluted to 1 μg/mL with 1% BSA prepared in PBST, and was added to ELISA plate at 100 μL/well. The plate was incubated at room temperature for 1 h, and each monoclonal antibody was diluted with 1% BSA prepared in PBST in a 3-fold gradient. The highest concentration of antibody was 10 μg/mL, and the antibody was diluted for 12 gradients. Each diluted monoclonal antibody was added to ELISA wells with 100 μL/well, and the plate was incubated at room temperature for 1 h. Each sample was added to duplicate wells in parallel. The plate was washed with PBST for 3 times, and HRP-anti human IgG Fc secondary antibody prepared with PBST was diluted at an appropriate ratio, and was added to ELISA wells at 100 μL/well. […] Each reaction solution was shaken uniformly and OD450 nm was read on a microplate reader. The data was analyzed and EC₅₀ was calculated.
(§2) Subsequently, according to the experimental method of Example 9, the affinity of the above mutant proteins to 874F7-Hu1 was determined, and IL-33 proteins (WT-1, WT-2, WT-3, and WT-4) without any mutation were set as controls.

[3] = target: T3, IL-33 mutant protein D65A; assay: ELISA as Example 9; row D65A
Method: as §1, §2

[4] = target: T4, IL-33 mutant protein Y53A; assay: ELISA as Example 9; row Y53A against WT-2
Method: as §1, §2

[5] = target: T5, IL-33 mutant protein E62A; assay: ELISA as Example 9; row E62A
Method: as §1, §2

[6] = target: T6, IL-33 mutant protein S60A; assay: ELISA as Example 9; row S60A against WT-1
Method: as §1, §2

[7] = target: T7, IL-33 protein without any mutation (WT); assay: ELISA as Example 9; row WT-2, the reference itself
Method: as §1, §2

Row | Binder | IC50 [1] [nM] | EC50 [2] [nM] | EC50 [3] [nM] | Affinity decline ratio [4] [fold] | EC50 [5] [nM] | Affinity decline ratio [6] [fold] | Affinity decline ratio [7] [fold]
1 | 874F7 (antibody, V domains shown, Murine hybridoma antibody purified on Protein G; also called murine antibody 874F7) VH: QVQLKESGPGLVAPSHSLSITCNVSGFSLSKYGVHWIRQIPGRGLDWLGVLRAGGSTGYNSALMSRLSISKDSSKSQVFLKMNDLRTDDTAVYFCVRDHYYYSSYGGFVYWGQGTLVTVSA VL: DIQMTQSPASQSASLGESVTITCLASQTIGAWLAWYRQQPGKSPQLLIYAATRLADGVPSRFSGSGSGTEFSFKINNLQAEDFVSYYCQQLDSSPYTFGGGTRLEM | 0.9 |  |  |  |  |  | 
2 | 874F7-Hu1 (antibody, human IgG4 S228P, kappa, also called 874F7-Hul; humanized antibody 874F7-Hu1) heavy: not shown light: DIQMTQSPSSVSASVGDRVTITCLASQTIGAWLAWYQQKPGKSPKLLIYAATRLADGVPSRFSGSGSGTDFTLTISSLQPEDFATYYCQQLDSSPYTFGQGTKVEIKRTVAAPSVFIFPPSDEQLKSGTASVVCLLNNFYPREAKVQWKVDNALQSGNSQESVTEQDSKDSTYSLSSTLTLSKADYEKHKVYACEVTHQGLSSPVTKSFNRGEC |  | 0.16 | 35.3 | 3.3 | 0.15 | 23.2 | 1
